From patent US20230134571A1 (INTERNATIONAL AIDS VACCINE INITIATIVE, published 2023)

Tests used:
Experiment in all cases: cell-based or functional assay
[1] = target: HIV Env, isolate 2865_A11.12 (HIV)
[2] = target: HIV Env, isolate 20358510.01 (HIV)
[3] = target: HIV Env, isolate 3426.v5.c17 (HIV)
[4] = target: HIV Env, isolate ZM249M.PL1 (HIV)
[5] = target: HIV Env, isolate CAP174.1.06_F3_1B (HIV)
[6] = target: HIV Env, isolate CAP304.2.00_F6.6 (HIV)
[7] = target: HIV Env, isolate CA240_A5.5 (HIV)

B1: ePGDM9 (antibody, V domains shown)
VH: QAQLVQSGPEVRKPGTSVKVSCKNPGNTLTTYDLHWVRQVPGQGLQWMGWISHEGDKKVIVERFKAKVTIDWDRSTNTAYLQLSGLTSEDTAVYYCAKGSKHRLRDYALYDEDGALNWAVDVDYLANLEFWGQGTAVTVSS
VL: DIVLTQSPLSLSVTPGESASISCKSSQSLIHGDRNNYLAWYVQKPGRSPQLLIDLASERASGVPDRFSGSGSRKDFTLKISRVETEDVGTYYCMQGRESPWTFGQGTKVDIK
- IC50 [1]: 0.071 µg/mL
- IC80 [1]: 0.258 µg/mL
- IC50 [2]: 0.004 µg/mL
- IC80 [2]: 0.017 µg/mL
- IC50 [3]: < 0.0006 µg/mL
- IC80 [3]: 0.002 µg/mL
- IC50 [4]: 0.004 µg/mL
- IC80 [4]: 0.05 µg/mL
- IC50 [5]: 12.6 µg/mL
- IC80 [5]: > 50 µg/mL
- IC50 [6]: 0.002 µg/mL
- IC80 [6]: 0.013 µg/mL
- IC50 [7]: > 50 µg/mL
- IC80 [7]: > 50 µg/mL
